Assay results published in patent publication US20210139548A1 (published 2021).
*1 amine or outer side, *2 acyl side, *3 side chain or, on linkers, in order; H or OH if unused. Side-chain parts run from the residue outwards. The star is where a group is joined. C18 diacid = O=C(O)CCCCCCCCCCCCCCCCC(=O)*; γGlu = O=C(O)[C@H](CCC(=O)[*:2])N[*:1]; Isovaleryl = CC(C)CC(=O)*; AEEA = NCCOCCOCC(=O)O

T1: human neuropeptide Y2 receptor (human, UniProt P49146 1-381)
T1 construct: whole, on cells; also called hNPY2 receptor; hNPY2-R
T1 sequence (looked up): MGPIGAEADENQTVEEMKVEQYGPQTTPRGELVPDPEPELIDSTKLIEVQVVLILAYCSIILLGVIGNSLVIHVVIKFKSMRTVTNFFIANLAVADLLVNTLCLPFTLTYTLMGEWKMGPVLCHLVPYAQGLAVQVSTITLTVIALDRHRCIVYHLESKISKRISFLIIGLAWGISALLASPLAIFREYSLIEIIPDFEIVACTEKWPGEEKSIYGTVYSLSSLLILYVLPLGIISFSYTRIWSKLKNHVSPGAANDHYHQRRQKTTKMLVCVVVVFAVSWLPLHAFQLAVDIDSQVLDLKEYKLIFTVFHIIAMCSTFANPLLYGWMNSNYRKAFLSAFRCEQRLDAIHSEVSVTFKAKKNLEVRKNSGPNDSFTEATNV


Molecular target: T1, human neuropeptide Y2 receptor
Experiment: radioligand competition (125I-PYY(1-36)), hNPY2R membranes
Procedure, shortened: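 Commercial human Y2 receptor membranes (0.5 μg protein/well) were incubated with peptide for 2 h at room temperature in 50 mM HEPES, 5 mM MgCl₂, 1 mM CaCl₂, pH 7.4, with 0.2% ovalbumin. Bound radioligand was separated on PEI-soaked GF/C filters and counted by scintillation, and IC₅₀ came from nonlinear sigmoidal regression.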

| Binder | Ki |
| --- | --- |
| Isovaleryl-APEK([AEEA-AEEA-γGlu-C18 diacid])PEEEASPEEVQRYYVSLRHYYNWLTRQRY-NH2 (SMILES CC(C)CC(=O)N[C@@H](C)C(=O)N1CCC[C@H]1C(=O)N[C@@H](CCC(=O)O)C(=O)N[C@@H](CCCCNC(=O)COCCOCCNC(=O)COCCOCCNC(=O)CC[C@H](NC(=O)CCCCCCCCCCCCCCCCC(=O)O)C(=O)O)C(=O)N1CCC[C@H]1C(=O)N[C@@H](CCC(=O)O)C(=O)N[C@@H](CCC(=O)O)C(=O)N[C@@H](CCC(=O)O)C(=O)N[C@@H](C)C(=O)N[C@@H](CO)C(=O)N1CCC[C@H]1C(=O)N[C@@H](CCC(=O)O)C(=O)N[C@@H](CCC(=O)O)C(=O)N[C@H](C(=O)N[C@@H](CCC(N)=O)C(=O)N[C@@H](CCCNC(=N)N)C(=O)N[C@@H](Cc1ccc(O)cc1)C(=O)N[C@@H](Cc1ccc(O)cc1)C(=O)N[C@H](C(=O)N[C@@H](CO)C(=O)N[C@@H](CC(C)C)C(=O)N[C@@H](CCCNC(=N)N)C(=O)N[C@@H](Cc1c[nH]cn1)C(=O)N[C@@H](Cc1ccc(O)cc1)C(=O)N[C@@H](Cc1ccc(O)cc1)C(=O)N[C@@H](CC(N)=O)C(=O)N[C@@H](Cc1c[nH]c2ccccc12)C(=O)N[C@@H](CC(C)C)C(=O)N[C@H](C(=O)N[C@@H](CCCNC(=N)N)C(=O)N[C@@H](CCC(N)=O)C(=O)N[C@@H](CCCNC(=N)N)C(=O)N[C@@H](Cc1ccc(O)cc1)C(N)=O)[C@@H](C)O)C(C)C)C(C)C) [Compound 204] | 3.35 nM |
| Isovaleryl-APAK([AEEA-AEEA-γGlu-C18 diacid])PPEDAEPEELQRYYVSLRHYYNWLTRQRY-NH2 (SMILES CC(C)CC(=O)N[C@@H](C)C(=O)N1CCC[C@H]1C(=O)N[C@@H](C)C(=O)N[C@@H](CCCCNC(=O)COCCOCCNC(=O)COCCOCCNC(=O)CC[C@H](NC(=O)CCCCCCCCCCCCCCCCC(=O)O)C(=O)O)C(=O)N1CCC[C@H]1C(=O)N1CCC[C@H]1C(=O)N[C@@H](CCC(=O)O)C(=O)N[C@@H](CC(=O)O)C(=O)N[C@@H](C)C(=O)N[C@@H](CCC(=O)O)C(=O)N1CCC[C@H]1C(=O)N[C@@H](CCC(=O)O)C(=O)N[C@@H](CCC(=O)O)C(=O)N[C@@H](CC(C)C)C(=O)N[C@@H](CCC(N)=O)C(=O)N[C@@H](CCCNC(=N)N)C(=O)N[C@@H](Cc1ccc(O)cc1)C(=O)N[C@@H](Cc1ccc(O)cc1)C(=O)N[C@H](C(=O)N[C@@H](CO)C(=O)N[C@@H](CC(C)C)C(=O)N[C@@H](CCCNC(=N)N)C(=O)N[C@@H](Cc1c[nH]cn1)C(=O)N[C@@H](Cc1ccc(O)cc1)C(=O)N[C@@H](Cc1ccc(O)cc1)C(=O)N[C@@H](CC(N)=O)C(=O)N[C@@H](Cc1c[nH]c2ccccc12)C(=O)N[C@@H](CC(C)C)C(=O)N[C@H](C(=O)N[C@@H](CCCNC(=N)N)C(=O)N[C@@H](CCC(N)=O)C(=O)N[C@@H](CCCNC(=N)N)C(=O)N[C@@H](Cc1ccc(O)cc1)C(N)=O)[C@@H](C)O)C(C)C) [Compound 196] | 0.98 nM |
| Isovaleryl-APEK([AEEA-AEEA-γGlu-C18 diacid])PEEDAEPEETQRYYVSLRHYYNWLTRQRY-NH2 (SMILES CC(C)CC(=O)N[C@@H](C)C(=O)N1CCC[C@H]1C(=O)N[C@@H](CCC(=O)O)C(=O)N[C@@H](CCCCNC(=O)COCCOCCNC(=O)COCCOCCNC(=O)CC[C@H](NC(=O)CCCCCCCCCCCCCCCCC(=O)O)C(=O)O)C(=O)N1CCC[C@H]1C(=O)N[C@@H](CCC(=O)O)C(=O)N[C@@H](CCC(=O)O)C(=O)N[C@@H](CC(=O)O)C(=O)N[C@@H](C)C(=O)N[C@@H](CCC(=O)O)C(=O)N1CCC[C@H]1C(=O)N[C@@H](CCC(=O)O)C(=O)N[C@@H](CCC(=O)O)C(=O)N[C@H](C(=O)N[C@@H](CCC(N)=O)C(=O)N[C@@H](CCCNC(=N)N)C(=O)N[C@@H](Cc1ccc(O)cc1)C(=O)N[C@@H](Cc1ccc(O)cc1)C(=O)N[C@H](C(=O)N[C@@H](CO)C(=O)N[C@@H](CC(C)C)C(=O)N[C@@H](CCCNC(=N)N)C(=O)N[C@@H](Cc1c[nH]cn1)C(=O)N[C@@H](Cc1ccc(O)cc1)C(=O)N[C@@H](Cc1ccc(O)cc1)C(=O)N[C@@H](CC(N)=O)C(=O)N[C@@H](Cc1c[nH]c2ccccc12)C(=O)N[C@@H](CC(C)C)C(=O)N[C@H](C(=O)N[C@@H](CCCNC(=N)N)C(=O)N[C@@H](CCC(N)=O)C(=O)N[C@@H](CCCNC(=N)N)C(=O)N[C@@H](Cc1ccc(O)cc1)C(N)=O)[C@@H](C)O)C(C)C)[C@@H](C)O) [Compound 199] | 5.69 nM |

The next binders have a lower Ki than those just listed; values first:

| Ki | Binder |
| --- | --- |
| 0.75 nM | Isovaleryl-APEK([AEEA-AEEA-γGlu-C18 diacid])PEEDASPEALQRYYVELRHYYNWLTRQRY-NH2 (SMILES CC(C)CC(=O)N[C@@H](C)C(=O)N1CCC[C@H]1C(=O)N[C@@H](CCC(=O)O)C(=O)N[C@@H](CCCCNC(=O)COCCOCCNC(=O)COCCOCCNC(=O)CC[C@H](NC(=O)CCCCCCCCCCCCCCCCC(=O)O)C(=O)O)C(=O)N1CCC[C@H]1C(=O)N[C@@H](CCC(=O)O)C(=O)N[C@@H](CCC(=O)O)C(=O)N[C@@H](CC(=O)O)C(=O)N[C@@H](C)C(=O)N[C@@H](CO)C(=O)N1CCC[C@H]1C(=O)N[C@@H](CCC(=O)O)C(=O)N[C@@H](C)C(=O)N[C@@H](CC(C)C)C(=O)N[C@@H](CCC(N)=O)C(=O)N[C@@H](CCCNC(=N)N)C(=O)N[C@@H](Cc1ccc(O)cc1)C(=O)N[C@@H](Cc1ccc(O)cc1)C(=O)N[C@H](C(=O)N[C@@H](CCC(=O)O)C(=O)N[C@@H](CC(C)C)C(=O)N[C@@H](CCCNC(=N)N)C(=O)N[C@@H](Cc1c[nH]cn1)C(=O)N[C@@H](Cc1ccc(O)cc1)C(=O)N[C@@H](Cc1ccc(O)cc1)C(=O)N[C@@H](CC(N)=O)C(=O)N[C@@H](Cc1c[nH]c2ccccc12)C(=O)N[C@@H](CC(C)C)C(=O)N[C@H](C(=O)N[C@@H](CCCNC(=N)N)C(=O)N[C@@H](CCC(N)=O)C(=O)N[C@@H](CCCNC(=N)N)C(=O)N[C@@H](Cc1ccc(O)cc1)C(N)=O)[C@@H](C)O)C(C)C) [Compound 195] |
| 0.6 nM | Isovaleryl-APEK([AEEA-AEEA-γGlu-C18 diacid])PEEDAAPEELQKYYVSLRHYYNWLTRQRY-NH2 (SMILES CC(C)CC(=O)N[C@@H](C)C(=O)N1CCC[C@H]1C(=O)N[C@@H](CCC(=O)O)C(=O)N[C@@H](CCCCNC(=O)COCCOCCNC(=O)COCCOCCNC(=O)CC[C@H](NC(=O)CCCCCCCCCCCCCCCCC(=O)O)C(=O)O)C(=O)N1CCC[C@H]1C(=O)N[C@@H](CCC(=O)O)C(=O)N[C@@H](CCC(=O)O)C(=O)N[C@@H](CC(=O)O)C(=O)N[C@@H](C)C(=O)N[C@@H](C)C(=O)N1CCC[C@H]1C(=O)N[C@@H](CCC(=O)O)C(=O)N[C@@H](CCC(=O)O)C(=O)N[C@@H](CC(C)C)C(=O)N[C@@H](CCC(N)=O)C(=O)N[C@@H](CCCCN)C(=O)N[C@@H](Cc1ccc(O)cc1)C(=O)N[C@@H](Cc1ccc(O)cc1)C(=O)N[C@H](C(=O)N[C@@H](CO)C(=O)N[C@@H](CC(C)C)C(=O)N[C@@H](CCCNC(=N)N)C(=O)N[C@@H](Cc1c[nH]cn1)C(=O)N[C@@H](Cc1ccc(O)cc1)C(=O)N[C@@H](Cc1ccc(O)cc1)C(=O)N[C@@H](CC(N)=O)C(=O)N[C@@H](Cc1c[nH]c2ccccc12)C(=O)N[C@@H](CC(C)C)C(=O)N[C@H](C(=O)N[C@@H](CCCNC(=N)N)C(=O)N[C@@H](CCC(N)=O)C(=O)N[C@@H](CCCNC(=N)N)C(=O)N[C@@H](Cc1ccc(O)cc1)C(N)=O)[C@@H](C)O)C(C)C) [Compound 202] |
| 0.87 nM | Isovaleryl-APAK([AEEA-AEEA-γGlu-C18 diacid])PEADASPEELQRYYVELRHYYNWLTRQRY-NH2 (SMILES CC(C)CC(=O)N[C@@H](C)C(=O)N1CCC[C@H]1C(=O)N[C@@H](C)C(=O)N[C@@H](CCCCNC(=O)COCCOCCNC(=O)COCCOCCNC(=O)CC[C@H](NC(=O)CCCCCCCCCCCCCCCCC(=O)O)C(=O)O)C(=O)N1CCC[C@H]1C(=O)N[C@@H](CCC(=O)O)C(=O)N[C@@H](C)C(=O)N[C@@H](CC(=O)O)C(=O)N[C@@H](C)C(=O)N[C@@H](CO)C(=O)N1CCC[C@H]1C(=O)N[C@@H](CCC(=O)O)C(=O)N[C@@H](CCC(=O)O)C(=O)N[C@@H](CC(C)C)C(=O)N[C@@H](CCC(N)=O)C(=O)N[C@@H](CCCNC(=N)N)C(=O)N[C@@H](Cc1ccc(O)cc1)C(=O)N[C@@H](Cc1ccc(O)cc1)C(=O)N[C@H](C(=O)N[C@@H](CCC(=O)O)C(=O)N[C@@H](CC(C)C)C(=O)N[C@@H](CCCNC(=N)N)C(=O)N[C@@H](Cc1c[nH]cn1)C(=O)N[C@@H](Cc1ccc(O)cc1)C(=O)N[C@@H](Cc1ccc(O)cc1)C(=O)N[C@@H](CC(N)=O)C(=O)N[C@@H](Cc1c[nH]c2ccccc12)C(=O)N[C@@H](CC(C)C)C(=O)N[C@H](C(=O)N[C@@H](CCCNC(=N)N)C(=O)N[C@@H](CCC(N)=O)C(=O)N[C@@H](CCCNC(=N)N)C(=O)N[C@@H](Cc1ccc(O)cc1)C(N)=O)[C@@H](C)O)C(C)C) [Compound 197] |
